Experimental data taken from US20240200081A1, “NUCLEIC ACID MOLECULE CONJUGATE HAVING PROLONGED IN VIVO HALF-LIFE” (APTACURE THERAPEUTICS LIMITED, published 2024).

Experiments:
sclerostin [1] = biological target: sclerostin (UniProt Q9BQB4 Q9BQB4:24-213); assay: cell_activity; inhibition potency, TOP-Wnt luciferase reporter; conditions: tags: expressed from transfected sclerostin plasmid in MC3T3-E1 cells
Procedure: To study the inhibition potency of aptamers against sclerostin's antagonistic effect on Wnt signaling, a TOP-Wnt induced luciferase reporter assay was used in osteoblast MC3T3-E1 cells (van Bezooijen, Svensson et al. 2007, Shum, Chan et al. 2011).
MC3T3-E1 cells were seeded in 24-well plates and cells were transfected with corresponding reporter plasmid (100 ng), Wnt3a plasmid (800 ng) and sclerostin plasmid (800 ng) as necessary using FuGENE HD transfection reagent (Promega) in the following day. 10 hours after transfection, culture medium was changed to fresh medium and cells were treated with aptamers/antibody. 24 hours after treatment, each well of cells was lysed with 100 μl passive lysis buffer and 20 μl was taken for analysis. The Luciferase Assay Reagent II and Stop & Glo Reagent were prepared and added automatically by SpectraMax i3x Multi-Mode Detection Platform (Molecular Device) according to the manufacturer's protocol (Promega) and data was analyzed accordingly (Grentzmann, Ingram et al. 1998, McNabb, Reed et al. 2005).

sclerostin [2] = biological target: sclerostin (Homo sapiens, UniProt Q9BQB4 SEQ:1-190); assay: ELONA; PBS, 1 mM MgCl2, RT; p158 prints 3' end as CT GCCC, APC001 as U G C C; conditions: tags: His6 (SELEX protein); recombinant human sclerostin
Procedure: An Enzyme-linked OligoNucleotide Assay (ELONA) was performed to determine the binding affinity of the aptamer candidates to sclerostin (Drolet, Moon-McDermott et al. 1996). Similarly, an Enzyme-linked ImmunoSorbent Assay (ELISA) was performed to determine the binding affinity of anti-sclerostin antibody to human sclerostin (Engvall and Perlmann 1971). 160 ng purified recombinant human sclerostin was coated to 96-well microtiter plate in 100 μl PBS by incubating at 4° C. overnight. The plate was then blocked with blocking buffer (PBS, 0.1% Tween 20 and 1% BSA) for 1 h at room temperature and washed with SELEX B&W buffer (PBS, 1mM MgCl2, 0.1% Tween 20 and 0.1% BSA) for 4 times. The aptamer candidates were denatured at 95° C. for 10 min and rapidly cooled on ice for 10 min before use. Appropriate concentrations of biotinylated aptamers/antibody were added into each well, then added SELEX B&W buffer to 100 μl and incubated for 45 min at room temperature with continuous gentle shaking. After binding, the plate was washed with SELEX B&W buffer for 4 times to remove non-specific and very weak binding, followed by washing with PBST+0.1% BSA for 4 times. […] Absorbance at 450 nm was measured with microplate reader (Stoltenburg, Krafcikova et al. 2016). Data was analyzed with Origin software (OriginLab, Northampton, MA). […]

Sequence of sclerostin (UniProt Q9BQB4 Q9BQB4:24-213) (Q9BQB4 24-213, one chain of several): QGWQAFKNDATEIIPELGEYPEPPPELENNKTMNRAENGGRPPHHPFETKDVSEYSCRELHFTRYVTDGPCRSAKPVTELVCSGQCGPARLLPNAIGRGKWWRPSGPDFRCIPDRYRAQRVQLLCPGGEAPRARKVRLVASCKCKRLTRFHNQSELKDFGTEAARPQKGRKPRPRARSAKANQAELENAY
Sequence of sclerostin (Homo sapiens, UniProt Q9BQB4 SEQ:1-190) (Q9BQB4 24-213): as the sequence (Q9BQB4 24-213, one chain of several) above

B1: modified aptscl 56 (ssDNA)
DNA: CGGGGTGTGGGTTCGTCGTTAGCTTGATTTGGCAGCTGCC
modifications: 2'-OMe on first 4 (CGGG) and last 4 nucleotides; 3' idT
B1 was tested, and the EC50 (sclerostin [1]) was 14 µg/mL and the Kd (sclerostin [2]) was 6.55 nM.
